Data reported in patent US20260055193A1 (CELLDEX THERAPEUTICS, published 2026).

T1: recombinant human FcγRIIb (human, UniProt P31994 46-217, limits assumed)
T1 construct: Histidine-tagged recombinant receptor captured on anti-Penta-His biosensors; not shown: histidine tag
T1 sequence (looked up): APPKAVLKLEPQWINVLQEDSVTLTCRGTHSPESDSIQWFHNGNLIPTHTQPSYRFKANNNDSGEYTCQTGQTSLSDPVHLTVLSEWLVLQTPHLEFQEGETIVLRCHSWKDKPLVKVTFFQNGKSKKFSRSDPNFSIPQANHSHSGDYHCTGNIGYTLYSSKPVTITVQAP

B1: mAb1 (antibody, human IgG1, kappa)
heavy: QVQLVQSGAEVKKPGASVKLSCKASGYTFTDYYINWVRQAPGKGLEWIARIYPGSGNTYYNEKFKGRATLTADKSTSTAYMQLSSLRSEDTAVYFCARGVYYFDYWGQGTTVTVSSASTKGPSVFPLAPSSKSTSGGTAALGCLVKDYFPEPVTVSWNSGALTSGVHTFPAVLQSSGLYSLSSVVTVPSSSLGTQTYICNVNHKPSNTKVDKKVEPKSCDKTHTCPPCPAPEAQGGPSVFLFPPKPKDTLYITREPEVTCVVVDVSHEDPEVKFNWYVDGVEVHNAKTKPREEQYNSTYRVVSVLTVLHQDWLNGKEYKCQVSNKALPAPIEKTISKAKGQPREPQVYTLPPSRDELTKNQVSLTCLVKGFYPSDIAVEWESNGQPENNYKTTPPVLDSDGSFFLYSKLTVDKSRWQQGNVFSCSVMHEALHNHYTQKSLSLSPG
light: DIVMTQSPSSLSASVGDRVTITCKASQNVRTNVAWYQQKPGKAPKALIYSASYRYSGVPDRFTGSGSGTDFTLTISSLQPEDFADYFCQQYNSYPRTFGGGTKVEIKRTVAAPSVFIFPPSDEQLKSGTASVVCLLNNFYPREAKVQWKVDNALQSGNSQESVTEQDSKDSTYSLSSTLTLSKADYEKHKVYACEVTHQGLSSPVTKSFNRGEC
B2: mAbc (antibody)
heavy: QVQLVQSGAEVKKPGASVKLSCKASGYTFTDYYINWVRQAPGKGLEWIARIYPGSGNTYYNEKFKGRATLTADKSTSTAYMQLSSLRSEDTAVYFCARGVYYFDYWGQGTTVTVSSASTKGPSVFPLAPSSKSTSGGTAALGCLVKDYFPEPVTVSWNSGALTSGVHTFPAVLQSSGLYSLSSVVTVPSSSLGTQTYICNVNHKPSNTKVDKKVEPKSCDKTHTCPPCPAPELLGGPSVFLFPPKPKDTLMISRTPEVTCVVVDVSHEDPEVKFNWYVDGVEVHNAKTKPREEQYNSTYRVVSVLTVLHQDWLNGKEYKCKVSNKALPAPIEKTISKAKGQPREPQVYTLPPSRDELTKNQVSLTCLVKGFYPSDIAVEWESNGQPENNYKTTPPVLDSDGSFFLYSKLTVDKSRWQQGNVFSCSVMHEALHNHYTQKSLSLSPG
light: B1 light
notes: It only says that mAbc has the variable regions of mAb1 and a wild-type (unmutated) human IgG1 Fc; also called corresponding antibody with a wild-type (unmutated) IgG1 Fc domain; copies: 2 + 2

How the values were obtained:
[1] = target: human KIT (wild-type KIT) (human, UniProt P10721 26-976); experiment: cell-based or functional assay
[2] = target: T1, recombinant human FcγRIIb; experiment: Bio-layer interferometry (Octet QKe); His-tagged FcγRIIb on anti-Penta-His biosensors, serial dilutions of antibody
Procedure: Binding to recombinant human Fc receptors was measured by bio-layer interferometry using an Octet® QKe instrument. […] Curve fitting was performed using the instrument's analysis software. Binding to FcRn was performed with association and dissociation steps at pH 6.0 as well as pH 7.2.

Chain of human KIT (wild-type KIT) (P10721 other isoform, or with tags, fused parts or gaps limits assumed): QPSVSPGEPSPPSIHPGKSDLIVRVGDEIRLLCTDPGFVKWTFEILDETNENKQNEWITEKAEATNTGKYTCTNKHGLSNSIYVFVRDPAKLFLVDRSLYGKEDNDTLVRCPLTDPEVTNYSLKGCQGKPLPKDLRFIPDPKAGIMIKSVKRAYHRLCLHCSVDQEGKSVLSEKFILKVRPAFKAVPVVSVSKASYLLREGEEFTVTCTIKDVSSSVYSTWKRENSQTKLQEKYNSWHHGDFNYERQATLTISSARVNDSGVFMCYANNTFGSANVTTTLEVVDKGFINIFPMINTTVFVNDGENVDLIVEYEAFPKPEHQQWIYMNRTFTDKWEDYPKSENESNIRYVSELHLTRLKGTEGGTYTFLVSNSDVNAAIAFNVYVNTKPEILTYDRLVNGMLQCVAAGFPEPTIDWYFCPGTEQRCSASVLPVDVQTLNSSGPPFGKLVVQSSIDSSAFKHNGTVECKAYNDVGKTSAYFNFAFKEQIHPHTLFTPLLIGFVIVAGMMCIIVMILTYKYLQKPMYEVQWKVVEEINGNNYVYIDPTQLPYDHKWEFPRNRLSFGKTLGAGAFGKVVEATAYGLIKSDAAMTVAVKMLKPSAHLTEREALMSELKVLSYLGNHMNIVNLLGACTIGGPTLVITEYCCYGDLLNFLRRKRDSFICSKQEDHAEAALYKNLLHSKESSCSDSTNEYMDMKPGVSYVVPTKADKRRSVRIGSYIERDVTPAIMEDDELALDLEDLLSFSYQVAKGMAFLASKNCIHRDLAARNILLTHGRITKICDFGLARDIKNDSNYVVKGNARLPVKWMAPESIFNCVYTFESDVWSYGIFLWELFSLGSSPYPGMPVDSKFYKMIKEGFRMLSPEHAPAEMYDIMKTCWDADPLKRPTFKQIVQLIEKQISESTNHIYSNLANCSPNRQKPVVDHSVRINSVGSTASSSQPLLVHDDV

Binder | IC50 of inhibition of SCF-dependent M-07e cell proliferation [1] [nM] | binding result [2]
B1 | 1.11 | 
B2 | 1.12 | no binding (tested: 500 nM)
